# Source: patent publication WO2000075333A1 (dated 2000)
# T1: CD20 (human, UniProt P11836 1-297)
# T1 construct: whole, on cells; also called CD20 antigen; CD20-positive Ramos cell line
# T1 sequence (looked up): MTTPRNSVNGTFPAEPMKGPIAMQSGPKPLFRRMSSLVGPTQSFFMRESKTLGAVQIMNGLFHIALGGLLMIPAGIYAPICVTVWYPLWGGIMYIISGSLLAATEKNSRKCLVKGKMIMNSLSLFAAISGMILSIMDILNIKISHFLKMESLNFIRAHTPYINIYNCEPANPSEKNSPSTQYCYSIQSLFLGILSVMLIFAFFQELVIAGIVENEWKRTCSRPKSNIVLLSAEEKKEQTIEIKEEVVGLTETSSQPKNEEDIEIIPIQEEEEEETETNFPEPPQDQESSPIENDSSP
# B1: B9E9 mAb (antibody, V domains shown)
# VH: QVQLVQSGAELVKPGASVKMSCKASGYTFTSYNMHWVKQTPGQGLEWIGAIYPGNGDTSYNQKFKGKATLTADKSSSTAYMQLSSLTSEDSAVYYCARAQLRPNYWYFDVWGAGTTVTVSS
# VL: DIVLSQSPAILSASPGEKVTMTCRASSSVSYMHWYQQKPGSSPKPWIYATSNLASGVPARFSGSGSGTSYSLTISRVEAEDAATYYCQQWISNPPTFGAGTKLELK
# Target: T1, CD20
# Assay: saturation binding of radiolabeled mAb to Ramos cells (10^7 cells), nonlinear regression, concentrations adjusted for immunoreactivity
binder,measurement,value
B1,Kd,9.75 nM
